Type in all cases: cell-based
In series [1] the test system is H23 lung adenocarcinoma cell line. Nature of the series: MTT assay, growth inhibition of H23 cell line. Particulars: 48 h and 72 h at 0.5 ng/μl and 10 ng/μl. The method, then: (§1) The inhibition ratio (IR) and the half maximal inhibitory concentration (IC50) values are determined by a MTT assay.
(In general: Tetrazolium assays rely on reduction of a dye to a coloured formazan, in cell work by metabolically active cells.)

For series [2], the system named is A549 lung adenocarcinoma cell line. Nature of the series: MTT assay, growth inhibition of A549 cell line. Particulars: 48 h and 72 h at 0.5 ng/μl and 10 ng/μl. The method, then:
as §1

In series [3] the test system is lung adenocarcinoma cell lines (H23, H358, HCC827, H1650, H1975, HCC2935, HCC4006, and A549). Nature of the series: MTT assay on the panel of eight lung adenocarcinoma cell lines. The settings on record: all tested cell lines; MTT assay after treatment for 72 h. The method, then:
as §1

For series [4], the system named is lung adenocarcinoma cell lines (H358, H1650, H1975, and HCC4006). Nature of the series: Intracellular arginine level by arginine ELISA kit. The settings on record: all examined cell lines; IC50 concentrations and 0.1 μg/μl. On the procedure:
In one example embodiment, four lung adenocarcinoma cell lines (i.e. H358, H1650, H1975, and HCC4006), obtained from ATCC, are treated with PEG-BCT-100 at IC50 concentrations and 0.1 μg/μl. Internalization of PEG-BCT-100 by lung adenocarcinoma cells are assessed by immunocytochemistry using anti-PEG-antibodies. Detection is done using anti-rabbit Alexa 488 conjugated secondary antibody and visualization is performed using a fluorescent microscope. The PEG-BCT-100 treated lung adenocarcinoma cells are lysed in RIPA buffer for determination of arginine level by K7733 arginine ELISA kit from Immunodiagnostik.
(In an ELISA, binding on a coated surface is turned into a signal by an enzyme label.)

Entries after “also recorded” stand apart in the source; their conditions may differ.

B1: PEG-BCT-100: pegylated recombinant human arginase I (SEQ ID NO.1, or SEQ ID NO.3 with six histidines), about 6-12 PEG molecules per arginase (protein, UniProt P05089 1-322, looked up)
Arginase-1: MSAKSRTIGIIGAPFSKGQPRGGVEEGPTVLRKAGLLEKLKEQECDVKDYGDLPFADIPNDSPFQIVKNPRSVGKASEQLAGKVAEVKKNGRISLVLGGDHSLAIGSISGHARVHPDLGVIWVDAHTDINTPLTTTSGNLHGQPVSFLLKELKGKIPDVPGFSWVTPCISAKDIVYIGLRDVDPGEHYILKTLGIKYFSMTEVDRLGIGKVMEETLSYLLGRKKRPIHLSFDVDGLDPSFTPATGTPVVGGLTYREGLYITEEIYKTGLLSGLDIMEVNPSLGKTPEEVTRTVNTAVAITLACFGLAREGNHKPIDYLNPPK
modifications: PEG, about 6-12 per arginase; optional His6 tag
Turning to B1, the entries for the “growth inhibition effect (cell proliferation)” value in series [1] and in series [2] were “inhibits H23 lung adenocarcinoma cell line proliferation more effectively than ADI” and “inhibits A549 lung adenocarcinoma cell line proliferation more effectively than ADI”, respectively. The “cytotoxicity (cell viability)” value in series [3] is “induces cytotoxicity in all tested lung adenocarcinoma cell lines”. Besides, the “intracellular (cytosolic) arginine level” value in series [4] is recorded as “depletes intracellular arginine significantly; also recorded: able to deplete cytosolic arginine level significantly”.

The record behind these values is patent publication US20180271960A1, “METHOD TO TREAT CANCER USING ARGININE DELPETOR AND ORNITHINE DECARBOXYLASE (ODC) INHIBITOR” (Bio-Cancer Treatment International Ltd., priority 2015, published 2018).
